{"source": "paper doi:10.1101/2021.02.22.432209", "target": "GST-PreScission-p62 FIR 4P (human) (UniProt Q13501)", "assay": "SPR", "data": [{"substance": "LC3B (1-125), His8-TEV-LC3B (from UniProt Q9GZQ8 1-120) (natural protein)", "values": [{"measurement": "KD estimated from the kinetics of the sensorgrams", "value": 80, "unit": "nM"}, {"measurement": "half life", "value": 1200, "unit": "s"}]}]}
